T1: N-acetyl-proline-glycine-proline
T1 chain: PGP

B1: recombinant human angiotensin converting enzyme (protein)
chain: LDPGLQPGNFSADEAGAQLFAQSYNSSAEQVLFQSVAASWAHDTNITAENARRQEEAALLSQEFAEAWGQKAKELYEPIWQNFTDPQLRRIIGAVRTLGSANLPLAKRQQYNALLSNMSRIYSTAKVCLPNKTATCWSLDPDLTNILASSRSYAMLLFAWEGWHNAAGIPLKPLYEDFTALSNEAYKQDGFTDTGAYWRSWYNSPTFEDDLEHLYQQLEPLYLNLHAFVRRALHRRYGDRYINLRGPIPAHLLGDMWAQSWENIYDMVVPFPDKPNLDVTSTMLQQGWNATHMFRVAEEFFTSLELSPMPPEFWEGSMLEKPADGREVVCHASAWDFYNRKDFRIKQCTRVTMDQLSTVHHEMGHIQYYLQYKDLPVSLRRGANPGFHEAIGDVLALSVSTPEHLHKIGLLDRVTNDTESDINYLLKMALEKIAFLPFGYLVDQWRWGVFSGRTPPSRYNFDWWYLRTKYQGICPPVTRNETHFDAGAKFHVPNVTPYIRYFVSFVLQFQFHEALCKEAGYEGPLHQCDIYRSTKAGAKLRKVLQAGSSRPWQEVLKDMVGLDALDAQPLLKYFQPVTQWLQEQNQQNGEVLGWPEYQWHPPLPDNYPEGIDLVTDEAEASKFVEEYDRTSQVVWNEYAEANWNYNTNITTETSKILLQKNMQIANHTLKYGTQARKFDVNQLQNTTIKRIIKKVQDLERAALPAQELEEYNKILLDMETTYSVATVCHPNGSCLQLEPDLTNVMATSRKYEDLLWAWEGWRDKAGRAILQFYPKYVELINQAARLNGYVDAGDSWRSMYETPSLEQDLERLFQELQPLYLNLHAYVRRALHRHYGAQHINLEGPIPAHLLGNMWAQTWSNIYDLVVPFPSAPSMDTTEAMLKQGWTPRRMFKEADDFFTSLGLLPVPPEFWNKSMLEKPTDGREVVCHASAWDFYNGKDFRIKQCTTVNLEDLVVAHHEMGHIQYFMQYKDLPVALREGANPGFHEAIGDVLALSVSTPKHLHSLNLLSSEGGSDEHDINFLMKMALDKIAFIPFSYLVDQWRWRVFDGSITKENYNQEWWSLRLKYQGLCPPVPRTQGDFDPGAKFHIPSSVPYIRYFVSFIIQFQFHEALCQAAGHTGPLHKCDIYQSKEAGQRLATAMKLGFSRPWPEAMQLITGQPNMSASAMLSYFKPLLDWLRTENELHGEKLGWPQYNWTPNSARSEGPLPDSGRVSFLGLDLDAQQARVGQWL
B2: recombinant human aminopeptidase N (protein)
chain: KAWNRYRLPNTLKPDSYRVTLRPYLTPNDRGLYVFKGSSTVRFTCKEATDVIIIHSKKLNYTLSQGHRVVLRGVGGSQPPDIDKTELVEPTEYLVVHLKGSLVKDSQYEMDSEFEGELADDLAGFYRSEYMEGNVRKVVATTQMQAADARKSFPCFDEPAMKAEFNITLIHPKDLTALSNMLPKGPSTPLPEDPNWNVTEFHTTPKMSTYLLAFIVSEFDYVEKQASNGVLIRIWARPSAIAAGHGDYALNVTGPILNFFAGHYDTPYPLPKSDQIGLPDFNAGAMENWGLVTYRENSLLFDPLSSSSSNKERVVTVIAHELAHQWFGNLVTIEWWNDLWLNEGFASYVEYLGADYAEPTWNLKDLMVLNDVYRVMAVDALASSHPLSTPASEINTPAQISELFDAISYSKGASVLRMLSSFLSEDVFKQGLASYLHTFAYQNTIYLNLWDHLQEAVNNRSIQLPTTVRDIMNRWTLQMGFPVITVDTSTGTLSQEHFLLDPDSNVTRPSEFNYVWIVPITSIRDGRQQQDYWLIDVRAQNDLFSTSGNEWVLLNLNVTGYYRVNYDEENWRKIQTQLQRDHSAIPVINRAQIINDAFNLASAHKVPVTLALNNTLFLIEERQYMPWEAALSSLSYFKLMFDRSEVYGPMKNYLKKQVTPLFIHFRNNTNNWREIPENLMDQYSEVNAISTACSNGVPECEEMVSGLFKQWMENPNNNPIHPNLRSTVYCNAIAQGGEEEWDFAWEQFRNATLVNEADKLRAALACSKELWILNRYLSYTLNPDLIRKQDATSTIISITNNVIGQGLVWDFVQSNWKKLFNDYGGGSFSFSNLIQAVTRRFSTEYELQQLEQFKKDNEETGFGSGTRALEQALEKTKANIKWVKENKEVVLQWFTENSK

Target: T1, N-acetyl-proline-glycine-proline

Protein	degradation of Ac-PGP (residual Ac-PGP by ESI-LC-MS/MS after 24 h; 1 µg/ml enzyme, 100 µg/ml Ac-PGP)
B1	ACE degraded 70% of Ac-PGP
B2	APN had no activity

From patent US20170333517
